Blank lines part the entries; values can stand above or below the binder they belong to.
Columns and labels:
[1] = molecular target: T1, P2 peptide comprising SEQ ID NO: 31 (human fibrin γ377-395) (human); assay: SPR (Biacore) single cycle, steady state affinity; IgG from HEK supernatant captured, γ377-395 peptide analyte
T1 construct: Bought (CPC Scientific 920712); also called human P2 peptide
T1 peptide: YSMKKTTMKIIPFNRLTIG

[2] = molecular target: T1, P2 peptide comprising SEQ ID NO: 31 …; assay: SPR (Biacore) single cycle, steady state fit; IgG from HEK supernatant captured, P2 peptide analyte
Method: FIG. 18 illustrates the procedure used for the single cycle kinetics analysis. The Biacore T200 […] instrument was used for single cycle kinetics analysis with the control software v2.0.1, and evaluation software V3.0. The anti-human capture chip was used with a running buffer consisting of HBS-P+ buffer (pH 7.4) containing 0.1% BSA at 25° C. a flow rate of 30 μl/min. Neat HEK supernatants were used as ligand and loaded to ˜1674 RU at 10 μl/min. P2 peptide comprising SEQ ID NO: 31 (CPC Scientific 920712, Lot #CS-02-00350) was the analyte for the analysis. […] Regeneration was performed with MgCl₂. Antibodies were diluted in running buffer to a final concentration of 20 μg/ml, based on concentrations assessed by Octet titre. At the start of each cycle, antibodies were loaded onto Fc2, Fc3 and Fc4 of the anti-human capture chip (GE Healthcare, Little Chalfont, UK). IgGs were captured at a flow rate of 10 μl/min to give an immobilization level (RL) of ˜ 1674 RU, the theoretical value to obtain an RMax of ˜50 RU. The surface was then allowed to stabilize. Single cycle kinetic data was obtained with P2 peptide as the analyte at a flow rate of 30 μl/min to minimize any potential mass transport limitations. […] The signal from the reference channel Fc1 (no antibody) was subtracted from that of Fc2, Fc3 and Fc4 to correct for differences in non-specific binding to a reference surface. […] The association phase for the five injections of increasing concentrations of P2 peptide was monitored for 20 seconds each time and a single dissociation phase was measured for 25 seconds following the last injection analyte. Regeneration of the anti-human capture surface was conducted using one injection of 3.8 M magnesium chloride.

B1: humanized VH5/Vκ2 antibody (antibody, IgG1, V domains shown)
VH: QVQLVQSGAEVKKPGSSVKVSCKASGYTFTSYWIHWVRQAPGQGLEWIGLIDPSDSYTNYNQKFRGRVTITRDTSTSTAYMELSSLRSEDTAVYYCASSDPTGCWGQGTTVTVSS
VL: DIVMTQAAFSNPVTPGTPASISCRSSKSLLHSSGITYLSWYLQKPGQSPQLLIYQMSNLASGVPDRFSSSGSGTDFTLKISRVEAEDVGVYYCAQNLELPLTFGQGTKLEIK
notes: IgG1; also called VH5/VK2; VH5Vk2
Kd [1]: 79 µM
Relative KD [1]: 1 fold against VH5/VK2
Kd [2]: 130 µM
Relative KD [2]: 1.47 fold against VH0/VK0

B3: humanized VH6/Vκ2 antibody (antibody, IgG1, V domains shown)
VH: QVQLVQSGAEVKKPGSSVKVSCKASGYTFTSYWIHWVRQAPGQGLEWIGLIDPSDSYTNYNQKFQGRVTITRDTSTSTAYMELSSLRSEDTAVYYCASSDPTGCWGQGTTVTVSS
VL: DIVMTQAAFSNPVTPGTPASISCRSSKSLLHSSGITYLSWYLQKPGQSPQLLIYQMSNLASGVPDRFSSSGSGTDFTLKISRVEAEDVGVYYCAQNLELPLTFGQGTKLEIK
notes: Expressed as IgG1; also called VH6/VK2; VH6Vk2
Kd [2]: 124 µM
Relative KD [2]: 1.4 fold against VH0/VK0

The remaining binders from weak to strong by Kd [2], led by results:

Kd [2]: 105 µM
Relative KD [2]: 1.18 fold against VH0/VK0
B2: humanized VH4/Vκ1 antibody (antibody, IgG1, V domains shown)
VH: QVQLVQSGAEVKKPGSSVKVSCKASGYTFTSYWIHWVRQAPGQGLEWIGLIDPSDSYTNYNQKFRGRVTITVDTSTSTAYMELSSLRSEDTAVYYCASSDPTGCWGQGTTVTVSS
VL: DIVMTQAAFSNPITPGTPASISCRSSKSLLHSSGITYLSWYLQKPGQSPQLLIYQMSNLASGVPDRFSSSGSGTDFTLRISRVEAEDVGVYYCAQNLELPLTFGQGTKLEIK
notes: Expressed as IgG1; also called VH4/VK1; VH4Vk1

Kd [1]: 47 µM
Relative KD [1]: 1 fold against VH4/VK2
Kd [2]: 84.5 µM
Relative KD [2]: 0.8 fold against VH0/VK0
B4: humanized VH4/Vκ2 antibody (antibody, IgG1, V domains shown)
VH: QVQLVQSGAEVKKPGSSVKVSCKASGYTFTSYWIHWVRQAPGQGLEWIGLIDPSDSYTNYNQKFRGRVTITVDTSTSTAYMELSSLRSEDTAVYYCASSDPTGCWGQGTTVTVSS
VL: DIVMTQAAFSNPVTPGTPASISCRSSKSLLHSSGITYLSWYLQKPGQSPQLLIYQMSNLASGVPDRFSSSGSGTDFTLKISRVEAEDVGVYYCAQNLELPLTFGQGTKLEIK
notes: IgG1; also called VH4/VK2; VH4Vk2
